Measurements reported in the Human Domainome abundance scans (Beltran et al. 2025).

B1: Chromodomain-helicase-DNA-binding protein 3, residues 374 to 426; numbered along this chain, Q12873 (parent)
chain: YETDHQDYCEVCQQGGEIILCDTCPRAYHLVCLDPELDRAPEGKWSCPHCEKE
B2: Ubiquitin-protein ligase residues 30 to 86; numbered along this chain, Q05086 (parent)
chain: KHLIERYYHQLTEGCGNEACTNEFCASCPTFLRMDNNAAAIKALELYKINAKLCDPH

Variants of: B1
Assay: abundance fitness (aPCA) (normalised: wild type 0, dead -1); higher = more abundant; growth selection in yeast, the domain comes from the species named
Conditions: Homo sapiens

Abundance fitness, by site and new letter:
S46: L -0.033, F -0.104, D -0.135, M -0.186, H -0.526, I 0.12, G -0.03, V -0.085, W -0.043, E -0.122, Q 0.127, R -0.037, P -0.327, K -0.084, Y 0.08, C -0.308, A -0.064, T -0.073
R39: W -0.2, S 0.01, T -0.037, Y -0.027, V -0.248
K44: Q 0.038, W -0.525, I 0.363, R 0.043, V -0.39, C -0.071, E -0.096, N -0.492, L -0.011, F -0.136, M -0.011, Y -0.395, S 0.077, T -0.304, D -0.329, G 0.101, P -0.264
E53: G -0.118, S -0.48, W -0.401, T -0.187, R -0.276, Q -0.118, I -0.37, C -0.584, D -0.374, M -0.19, V -0.309, H -0.426
H49: W -0.234, N 0.217, L -0.128, P -0.334, F -0.244, R -0.143, E -0.062, C -0.456, K -0.127, M -0.797, G -0.033, A -0.183, D -0.185, V 0.126, Y -0.32, I 0.221, Q -0.034, T -0.011
E42: W -0.396, Q -0.088, S -0.06, P -0.138, C -0.005, A -0.171, H 0.164, G 0.003, M -0.203, F -0.296, L 0.066, V -0.044, D -0.484, T -0.173, K -0.181, R -0.232, Y -0.219
P48: M -0.07, E -0.074, V -0.139, D -0.416, Q -0.078, F -0.528, S -0.217, T -0.24, W -0.358, G -0.031, A -0.002, C -0.203, H -0.599, K -0.109, N -0.014
W45: T -0.143, S -0.224, K -0.072, F 0.158, M -0.268, C -0.182, Q 0.19, I -0.221, N 0.035, Y 0.171, L -0.218, H -0.101, A -0.037, R -0.204, G -0.312, E -0.099
P41: A -0.114, N -0.026, D -0.368, R -0.093, H -0.374, M -0.202, K -0.25, L 0.015, C -0.344, S -0.045, F -0.25, W -0.317, G 0.028, E -0.092, T -0.06, Y -0.153, Q -0.073, I -0.083
K52: P 0.104, S 0.049, H -0.38, R 0.013, W -0.487, G -0.137, M -0.156, E -0.308, A -0.264, V -0.357, T 0.01, D -0.413, N -0.024, L -0.308
C47: Y -0.972, K -1.02, P -1.05, V -0.753, M -0.657, A -1.06, R -0.835, H -1.07, Q -0.835, S -0.814, F -0.465, T -0.931, D -0.512, G -0.767, W -0.847, E -1.08
G43: N 0.204, D -0.031, Q -0.001, A -0.314, T -0.128, C -0.369, E 0.22, K 0.119, S -0.043, R -0.142, Y -0.277, H -0.12, I -0.368, M -0.039, V 0.054, L -0.343, F -0.257, P 0.057
E51: I -0.438, A -0.215, P -0.194, C -0.137, R -0.215, M -0.396, T -0.156, Q -0.533, W -0.501, D -0.37, Y -0.554, S -0.158, F -0.205, L -0.039
A40: V -0.081, G -0.398, E 0.13, P -0.138, C -0.33, L -0.107, F -0.44, N -0.169, H -0.412, W -0.346, T -0.162, D 0.026, R -0.129, Y -0.38, K -0.188, Q 0.126, S -0.221, M -0.004
C50: E -0.547, S -0.66, Q -0.57, G -0.383, P -0.424, Y -0.791, L -0.468, V -0.598, K -0.923, I -0.564, A -0.417, W -0.565, N -0.664, F -0.682, H -0.291, D -0.176

Variants of: B2
Assay: as above
Conditions: Homo sapiens

Abundance fitness: each site, then its substitutions
R6: W -0.292, E -0.078, N -0.006, P 0.011, L -0.097, H -0.027, C -0.271, F -0.147, Y -0.209, I -0.151, V -0.044, T -0.017, M -0.079, D -0.028, A -0.021, S -0.026, K 0.029
K1: G -0.476, Y -0.31, M -0.253, E -0.368, A -0.757, L -0.577, S -0.833, R -0.102, P -0.719, N -0.397, T -0.1, V -0.517, F -0.53, C -0.33
I4: R 0.004, Y -0.029, L -0.159, M -0.087, T 0.064, S 0.012, Q 0.058, K 0.059, W -0.208, C -0.113, V -0.047, E -0.032, F -0.15, G -0.117, A -0.027, D -0.116, P -0.093, N -0.042
E5: I -0.142, C -0.125, V -0.211, L -0.123, Q 0.037, M -0.105, N 0.058, W -0.08, T -0.005, S -0.01, R 0.015, H -0.04, A -0.116, G -0.042, P -0.068, F -0.112, K 0.037
L3: D -0.264, N -0.057, Q 0.014, G -0.129, E -0.206, A -0.334, Y -0.021, V -0.474, I -0.039, W -0.049, K 0.003, S -0.004, P -0.204, R -0.077, C -0.005, M 0.048
Y7: A -0.448, D -0.683, E -0.963, C -0.65
H2: T -0.085, I 0.229, P -0.116, C -0.204, A -0.041, Y 0.051, W -0.542, R -0.025, E -0.055, L -0.005, V -0.044, S 0.019, K -0.021, M -0.03, D 0.082, Q 0.025
